Consider four substances from patent US20150307555A1.

For experiment [1], the target named is human V2 receptor (human) (UniProt P30518). Description: cell-based or functional assay.
In experiment [2] the target is human V1b receptor (human) (UniProt P47901). Description: cell-based or functional assay.
human V1b receptor (human), sequence (P47901 whole entry): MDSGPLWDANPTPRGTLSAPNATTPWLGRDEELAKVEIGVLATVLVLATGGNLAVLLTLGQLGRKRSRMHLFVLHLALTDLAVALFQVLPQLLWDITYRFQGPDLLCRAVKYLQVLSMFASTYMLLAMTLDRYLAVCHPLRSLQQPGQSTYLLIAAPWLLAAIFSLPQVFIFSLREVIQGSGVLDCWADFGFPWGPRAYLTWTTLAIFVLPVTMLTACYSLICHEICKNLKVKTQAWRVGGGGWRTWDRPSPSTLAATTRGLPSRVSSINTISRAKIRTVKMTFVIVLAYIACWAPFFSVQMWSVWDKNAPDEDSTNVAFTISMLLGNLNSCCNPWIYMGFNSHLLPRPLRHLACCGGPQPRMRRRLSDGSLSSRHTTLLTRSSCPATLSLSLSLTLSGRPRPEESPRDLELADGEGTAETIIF

Consider “Arginine Vasopressin (peptide; unit assumed)”, for which, in experiment [1], the EC50 hV2-R amounted to 0.04 nM.
In experiment [2], “Desmopressin, [1-deamino, 8-D-arginine]-vasopressin (peptide)” gave a % Efficacy hV1b-R of 100%. In experiment [1], this substance yielded a % Efficacy hV2-R of 100%.
Substance [Val4]dDAVP (peptide) registered a % Efficacy hV2-R in experiment [1] of 89%.
In the case of [Val4]dDAVP (peptide; unit assumed), in experiment [1], the EC50 hV2-R is 0.05 nM.
